The values below are quoted from earlier work in PMC10170156.

The data set addresses EGFR (Homo sapiens) (UniProt P00533).

For orientation: Kd means the constant that tells how readily two partners part at equilibrium. For the substance EGF (from UniProt P01133), the Kd is 4 nM.
